T1: Dr αE-catenin (Danio rerio (zebrafish), UniProt Q9PVF8 1-907)
T1 sequence (looked up): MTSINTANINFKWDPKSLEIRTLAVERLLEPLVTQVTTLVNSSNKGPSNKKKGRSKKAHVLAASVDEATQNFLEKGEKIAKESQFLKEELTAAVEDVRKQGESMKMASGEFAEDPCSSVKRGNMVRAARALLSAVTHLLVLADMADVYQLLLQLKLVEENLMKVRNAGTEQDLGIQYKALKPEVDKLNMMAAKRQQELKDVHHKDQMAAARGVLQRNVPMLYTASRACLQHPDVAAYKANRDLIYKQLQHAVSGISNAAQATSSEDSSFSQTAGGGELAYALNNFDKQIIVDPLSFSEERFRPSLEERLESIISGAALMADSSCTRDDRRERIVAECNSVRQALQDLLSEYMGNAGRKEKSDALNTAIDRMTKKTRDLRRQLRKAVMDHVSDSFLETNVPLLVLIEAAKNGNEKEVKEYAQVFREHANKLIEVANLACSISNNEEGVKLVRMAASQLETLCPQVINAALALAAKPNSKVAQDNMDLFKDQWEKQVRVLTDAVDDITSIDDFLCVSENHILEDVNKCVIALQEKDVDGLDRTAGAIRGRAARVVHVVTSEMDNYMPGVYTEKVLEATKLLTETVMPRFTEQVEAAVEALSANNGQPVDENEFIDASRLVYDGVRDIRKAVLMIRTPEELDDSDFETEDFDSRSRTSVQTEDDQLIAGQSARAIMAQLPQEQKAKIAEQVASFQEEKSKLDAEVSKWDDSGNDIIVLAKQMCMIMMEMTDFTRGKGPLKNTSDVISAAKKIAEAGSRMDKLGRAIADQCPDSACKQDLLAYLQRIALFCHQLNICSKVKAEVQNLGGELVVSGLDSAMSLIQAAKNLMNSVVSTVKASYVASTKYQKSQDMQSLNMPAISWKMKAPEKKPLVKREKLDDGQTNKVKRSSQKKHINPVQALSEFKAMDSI


Experiments:
[1] = biological target: E-cadherin/β-catenin complex (Mus musculus) (UniProt P09803); details: cited from earlier work
E-cadherin/β-catenin complex (Mus musculus), sequence (P09803 157-884, chain 1 of 2): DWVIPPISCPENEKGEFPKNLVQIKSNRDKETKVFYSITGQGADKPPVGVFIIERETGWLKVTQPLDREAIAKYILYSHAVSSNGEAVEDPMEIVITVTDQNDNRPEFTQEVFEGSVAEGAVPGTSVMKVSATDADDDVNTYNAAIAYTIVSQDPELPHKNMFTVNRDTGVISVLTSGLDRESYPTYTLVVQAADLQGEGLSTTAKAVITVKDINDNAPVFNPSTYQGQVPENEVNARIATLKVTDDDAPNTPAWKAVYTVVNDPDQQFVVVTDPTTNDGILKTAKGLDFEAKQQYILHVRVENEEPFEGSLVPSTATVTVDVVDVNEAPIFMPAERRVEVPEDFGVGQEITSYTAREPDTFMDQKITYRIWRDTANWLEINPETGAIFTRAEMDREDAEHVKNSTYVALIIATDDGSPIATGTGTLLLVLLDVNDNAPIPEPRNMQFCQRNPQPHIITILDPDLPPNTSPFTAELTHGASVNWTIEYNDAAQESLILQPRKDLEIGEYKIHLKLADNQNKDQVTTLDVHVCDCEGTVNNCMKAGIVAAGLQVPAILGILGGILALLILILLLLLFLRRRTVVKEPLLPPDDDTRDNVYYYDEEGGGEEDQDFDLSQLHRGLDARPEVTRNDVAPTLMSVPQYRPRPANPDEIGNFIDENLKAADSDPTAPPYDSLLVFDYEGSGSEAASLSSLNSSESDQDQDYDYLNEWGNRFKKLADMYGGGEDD
E-cadherin/β-catenin complex (Mus musculus), sequence (Q02248 2-781, chain 2 of 2, further chain): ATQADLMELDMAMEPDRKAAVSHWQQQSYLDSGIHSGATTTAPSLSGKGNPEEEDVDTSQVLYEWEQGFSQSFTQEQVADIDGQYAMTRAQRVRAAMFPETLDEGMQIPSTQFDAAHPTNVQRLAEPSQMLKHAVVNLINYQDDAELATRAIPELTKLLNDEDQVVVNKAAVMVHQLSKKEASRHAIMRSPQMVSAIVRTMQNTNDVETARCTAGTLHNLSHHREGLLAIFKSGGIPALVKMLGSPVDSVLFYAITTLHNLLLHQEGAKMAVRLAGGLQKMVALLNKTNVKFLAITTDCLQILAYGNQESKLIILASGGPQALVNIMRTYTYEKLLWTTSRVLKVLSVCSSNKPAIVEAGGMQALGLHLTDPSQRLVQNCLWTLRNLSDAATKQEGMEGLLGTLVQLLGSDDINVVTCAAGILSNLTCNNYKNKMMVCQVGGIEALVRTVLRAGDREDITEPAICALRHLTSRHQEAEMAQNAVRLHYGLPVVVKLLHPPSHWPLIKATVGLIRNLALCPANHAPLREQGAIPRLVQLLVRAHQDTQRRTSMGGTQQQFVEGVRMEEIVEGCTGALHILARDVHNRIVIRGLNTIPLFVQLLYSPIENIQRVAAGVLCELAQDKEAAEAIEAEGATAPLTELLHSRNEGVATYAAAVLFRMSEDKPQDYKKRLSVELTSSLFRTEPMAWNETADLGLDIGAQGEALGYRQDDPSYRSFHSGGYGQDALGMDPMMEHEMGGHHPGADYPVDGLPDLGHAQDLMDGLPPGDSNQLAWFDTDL

Dr αE-catenin = biological target: T1, Dr αE-catenin; assay: reconstitution of the complex on the coverslip, read by optical trap

αE-catenin, sequence (P26231 2-906): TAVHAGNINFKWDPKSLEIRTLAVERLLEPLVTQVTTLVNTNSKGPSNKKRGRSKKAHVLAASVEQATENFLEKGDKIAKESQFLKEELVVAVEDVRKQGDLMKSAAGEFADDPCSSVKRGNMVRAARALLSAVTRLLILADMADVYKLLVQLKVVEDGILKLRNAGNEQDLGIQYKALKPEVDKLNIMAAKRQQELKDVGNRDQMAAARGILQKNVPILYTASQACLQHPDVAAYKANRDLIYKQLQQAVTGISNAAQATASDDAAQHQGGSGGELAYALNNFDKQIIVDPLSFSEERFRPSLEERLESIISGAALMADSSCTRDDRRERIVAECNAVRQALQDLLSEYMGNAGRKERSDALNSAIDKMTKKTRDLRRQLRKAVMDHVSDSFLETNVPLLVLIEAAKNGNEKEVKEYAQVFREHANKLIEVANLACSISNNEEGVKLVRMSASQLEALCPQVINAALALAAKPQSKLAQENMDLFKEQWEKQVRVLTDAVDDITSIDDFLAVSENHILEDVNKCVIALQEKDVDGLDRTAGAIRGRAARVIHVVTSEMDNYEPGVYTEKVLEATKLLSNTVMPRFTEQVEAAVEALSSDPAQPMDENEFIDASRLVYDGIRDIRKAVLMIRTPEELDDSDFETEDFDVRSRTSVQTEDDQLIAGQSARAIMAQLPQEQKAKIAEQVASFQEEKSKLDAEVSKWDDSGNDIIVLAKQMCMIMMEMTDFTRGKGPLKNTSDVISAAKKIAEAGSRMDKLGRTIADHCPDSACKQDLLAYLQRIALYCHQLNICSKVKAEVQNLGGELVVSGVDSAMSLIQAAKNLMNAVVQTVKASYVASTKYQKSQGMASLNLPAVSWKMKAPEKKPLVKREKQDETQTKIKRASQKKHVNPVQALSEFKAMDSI

Row | binding result (Dr αE-catenin) | Molecule | Kd [1] [nM]
1 |  | αE-catenin (from UniProt P26231) | 1
2 | binds | Dr β-catenin (natural protein, Danio rerio (zebrafish), UniProt F1QGH7 1-780, looked up) MATQSDLMELEMAMDPDRKAAVSHWQQQSYLDSGIHSGATTTAPSLSGKGNPEDDDVDNQVLYEWEQGFNQSFNQEQVADIDGQYAMTRAQRVRAAMFPETLDEGMQIPSTQFDSAHPTNVQRLAEPSQMLKHAVVNLINYQDDAELATRAIPELTKLLNDEDQVVVNKAAVMVHQLSKKEASRHAIMRSPQMVSAIVRTMQNTNDVETARCTSGTLHNLSHHREGLLAIFKSGGIPALVKMLGSPVDSVLFYAITTLHNLLLHQEGAKMAVRLAGGLQKMVALLNKTNVKFLAITTDCLQILAYGNQESKLIILASGGPQALVNIMRTYTYEKLLWTTSRVLKVLSVCSSNKPAIVEAGGMQALGLHLTDPSQRLVQNCLWTLRNLSDAATKQEGMEGLLGTLVQLLGSDDINVVTCAAGILSNLTCNNYKNKMMVCQVGGIEALVRTVLRAGDREDITEPAICALRHLTSRHQDAEMAQNAVRLHYGLPVVVKLLHPPSHWPLIKATVGLIRNLALCPANHAPLREQGAIPRLVQLLVRAHQDTQRRTSMGGTQQQFVEGVRMEEIVEGCTGALHILARDIHNRIVIRGLNTIPLFVQLLYSPIENIQRVAAGVLCELAQDKEAAEAIEAEGATAPLTELLHSRNEGVATYAAAVLFRMSEDKPQDYKKRLSVELTSSLFRTEPMTWNETGDLGLDIGAQGEPLGYRQDDPSYRSFHSGGYGQDAMGMDPMMEHEMAGHHPGPDYPVDGLPDLGHTQDLIDGLPPGDSNQLAWFDTDL | 
